Blank lines part the entries; values can stand above or below the molecule they belong to.
Key:
[1] = biological target: peptide FLEEL
[2] = biological target: T1, bovine vitamin K-dependent carboxylase (94,000 Mr protein from bovine liver microsomes) (bovine, UniProt Q07175); test: competition of cross-linking of 125I-FIXQ/S to the carboxylase, 100-fold excess of proFIX19
T1 sequence: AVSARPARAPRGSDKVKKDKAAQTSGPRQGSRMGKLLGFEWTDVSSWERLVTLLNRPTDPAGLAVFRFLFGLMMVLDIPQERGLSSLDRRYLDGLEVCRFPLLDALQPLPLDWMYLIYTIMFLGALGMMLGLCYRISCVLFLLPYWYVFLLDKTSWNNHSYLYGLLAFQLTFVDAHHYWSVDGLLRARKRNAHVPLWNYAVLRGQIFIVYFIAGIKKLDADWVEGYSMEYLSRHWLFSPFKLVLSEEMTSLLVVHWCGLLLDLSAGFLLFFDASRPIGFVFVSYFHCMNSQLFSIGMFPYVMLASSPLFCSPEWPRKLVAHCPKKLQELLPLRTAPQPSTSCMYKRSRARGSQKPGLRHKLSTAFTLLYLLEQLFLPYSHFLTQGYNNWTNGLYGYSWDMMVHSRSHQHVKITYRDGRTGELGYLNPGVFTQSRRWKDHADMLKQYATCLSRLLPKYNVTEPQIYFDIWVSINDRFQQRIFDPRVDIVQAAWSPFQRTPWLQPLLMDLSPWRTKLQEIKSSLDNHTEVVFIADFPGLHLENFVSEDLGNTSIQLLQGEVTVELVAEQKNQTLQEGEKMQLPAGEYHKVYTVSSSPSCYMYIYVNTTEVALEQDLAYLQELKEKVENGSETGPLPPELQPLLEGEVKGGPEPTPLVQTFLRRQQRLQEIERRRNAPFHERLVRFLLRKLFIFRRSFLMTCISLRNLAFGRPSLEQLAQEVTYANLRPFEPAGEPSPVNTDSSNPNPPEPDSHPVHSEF
Excerpt: In order to evaluate the binding specificity of FIXQ/S and attain an independent estimate of the molecular weight of the carboxylase, we cross-linked ^125I-FIXQ/S to 60-fold affinity-purified material (FIG. 1, lane 3). […] The minor bands in lane 2 were unaffected by competition (lane 1). By subtracting the molecular weight of FIXQ/S (7,000 M_r) from the estimated size of the cross-linked complex we estimate that the size of the protein to which the FIXQ/S peptide binds is approximately 94,000 M_r.

[3] = biological target: T2, bovine vitamin K-dependent carboxylase (94,000 Mr protein from bovine liver microsomes) (bovine) (UniProt Q07175)
T2 sequence: T1 sequence

specific activity, 14CO2 incorporation into FLEEL (cpm/mg protein/hr) [1]: 2.4e+09
Molecule: bovine vitamin K-dependent carboxylase (94,000 Mr protein from bovine liver microsomes) (from UniProt Q07175) (enzyme)

binding result [2]: binds
stimulation of the incorporation of CO2 into FLEEL [3]: 13 fold
B1: Peptide proFIX19 (peptide)
peptide: AVFLDHENANKILNRPKRY

Source: patent publication US5268275, “Vitamin K-dependent carboxylase” (The University of North Carolina at Chapel Hill, dated 1993)
